Reference: patent US20080112961A1 (MacroGenics, published 2008)

T1: FcγRIIB (form not stated) (UniProt P31994 43-217, limits assumed)
T1 construct: also called FcγRIIB (ELISA)
T1 sequence (looked up): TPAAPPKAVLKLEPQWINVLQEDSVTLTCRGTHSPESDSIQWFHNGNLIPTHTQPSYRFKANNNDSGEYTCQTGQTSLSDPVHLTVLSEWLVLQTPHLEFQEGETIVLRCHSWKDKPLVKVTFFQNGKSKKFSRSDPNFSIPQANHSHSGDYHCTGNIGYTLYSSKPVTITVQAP

T2: FcγRIIB-Fc fusion protein, soluble dimer: extracellular domain of FcγRIIB fused to the hinge-CH2-CH3 domain … (human, UniProt P31994 43-217, limits assumed)
T2 construct: extracellular domain; also called FcRIIB-Fc; 2bfcagl; not shown: human IgG2 hinge-CH2-CH3
T2 sequence (looked up): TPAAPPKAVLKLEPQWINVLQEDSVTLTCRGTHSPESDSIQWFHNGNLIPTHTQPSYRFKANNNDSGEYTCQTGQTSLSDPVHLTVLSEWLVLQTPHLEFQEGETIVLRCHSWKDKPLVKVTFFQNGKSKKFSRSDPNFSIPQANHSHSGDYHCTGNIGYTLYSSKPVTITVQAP


Key:
[1] = molecular target: T3, FcγRIIIA (form not stated) (UniProt P08637 17-208, limits assumed); test: ELISA
T3 construct: also called FcγRIIIA (ELISA)
T3 sequence (P08637 17-208 F176V limits assumed, form in doubt): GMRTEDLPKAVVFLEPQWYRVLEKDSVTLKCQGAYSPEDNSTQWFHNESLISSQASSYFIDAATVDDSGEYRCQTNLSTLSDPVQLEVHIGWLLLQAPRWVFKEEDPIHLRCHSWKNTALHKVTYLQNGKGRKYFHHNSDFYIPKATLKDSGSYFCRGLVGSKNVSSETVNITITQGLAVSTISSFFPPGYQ

[2] = molecular target: T1, FcγRIIB (form not stated); test: ELISA
[3] = molecular target: T3, FcγRIIIA (form not stated); test: ELISA; remark: listed apart in the source
[4] = molecular target: T2, FcγRIIB-Fc fusion protein, soluble …; test: BIAcore, ch4-4-20
Description: Following this, the unreacted active esters were “capped off” with an injection of 1M Et-NH2. Once a suitable surface was prepared, ch 4-4-20 antibodies carrying the Fc mutations were passed over the surface by one minute injections of a 20 μg/mL solution at a […] flow rate. […] Next, dilution series of the receptor (FcγRIIIA and FcγRIIB-Fc fusion protein) in HBS-P buffer (10 mM HEPES, 150 mM NaCl, 0.005% Surfactant P20, 3 mM EDTA, pH 7.4) were injected onto the surface at 100 μL/min Antibody regeneration between different receptor dilutions was carried out by single 5 second injections of 100 mM NaHCO₃ pH 9.4; 3M NaCl.
Binding curves for two different concentrations (200 nM and 800 nM for FcγRIIIA and 200 nM and 400 nM for FcγRIIB fusion protein) were aligned and responses adjusted to the same level of captured antibodies, and the reference curves were subtracted from the experimental curves. Association and dissociation phases were fitted separately. Dissociation rate constant was obtained for interval 32-34 sec of the dissociation phase; association phase fit was obtained by a 1:1 Langmuir model and base fit was selected on the basis Rₘₐₓ and chi² criteria.
Secondary Screen of Mutants via BIAcore: Mutants that were selected in the above screens were then analyzed by BIAcore to determine the kinetic parameters for binding FcγRIIIA (158V) and FcγRIIB. The method used was similar to that disclosed in Section 7.1, supra.

Row | fold increase vs WT [3] [x] | fold increase vs WT [2] [x] | Binder | other results
1 | 1.5 | – | ch4-4-20 K334E, T359N, T366S (antibody) heavy: ASTKGPSVFPLAPSSKSTSGGTAALGCLVKDYFPEPVTVSWNSGALTSGVHTFPAVLQSSGLYSLSSVVTVPSSSLGTQTYICNVNHKPSNTKVDKKVEPKSCDKTHTCPPCPAPELLGGPSVFLFPPKPKDTLMISRTPEVTCVVVDVSHEDPEVKFNWYVDGVEVHNAKTKPREEQYNSTYRVVSVLTVLHQDWLNGKEYKCKVSNKALPAPIEETISKAKGQPREPQVYTLPPSRDELNKNQVSLSCLVKGFYPSDIAVEWESNGQPENNYKTTPPVLDSDGSFFLYSKLTVDKSRWQQGNVFSCSVMHEALHNHYTQKSLSLSPGK | ELISA binding, fold vs Wt [1]: 1.5 X; binding result [2]: binds
2 | 0.5 | 0.75 | ch4-4-20 V348M, K334N, F275I, Y202M, K147T (antibody) ASTKGPSVFPLAPSSKSTSGGTAALGCLVTDYFPEPVTVSWNSGALTSGVHTFPAVLQSSGLYSLSSVVTVPSSSLGTQTYICNMNHKPSNTKVDKKVEPKSCDKTHTCPPCPAPELLGGPSVFLFPPKPKDTLMISRTPEVTCVVVDVSHEDPEVKINWYVDGVEVHNAKTKPREEQYNSTYRVVSVLTVLHQDWLNGKEYKCKVSNKALPAPIENTISKAKGQPREPQMYTLPPSRDELTKNQVSLTCLVKGFYPSDIAVEWESNGQPENNYKTTPPVLDSDGSFFLYSKLTVDKSRWQQGNVFSCSVMHEALHNHYTQKSLSLSPGK | –
3 | 0.5 | 6 | ch4-4-20 P343S, P353L, S375I, S383N (antibody) heavy: ASTKGPSVFPLAPSSKSTSGGTAALGCLVKDYFPEPVTVSWNSGALTSGVHTFPAVLQSSGLYSLSSVVTVPSSSLGTQTYICNVNHKPSNTKVDKKVEPKSCDKTHTCPPCPAPELLGGPSVFLFPPKPKDTLMISRTPEVTCVVVDVSHEDPEVKFNWYVDGVEVHNAKTKPREEQYNSTYRVVSVLTVLHQDWLNGKEYKCKVSNKALPAPIEKTISKAKGQSREPQVYTLPLSRDELTKNQVSLTCLVKGFYPIDIAVEWENNGQPENNYKTTPPVLDSDGSFFLYSKLTVDKSRWQQGNVFSCSVMHEALHNHYTQKSLSLSPGK | –
4 | – | – | ch4-4-20 MgFc63 (S298N, K360R, N361D) (antibody) heavy: ASTKGPSVFPLAPSSKSTSGGTAALGCLVKDYFPEPVTVSWNSGALTSGVHTFPAVLQSSGLYSLSSVVTVPSSSLGTQTYICNVNHKPSNTKVDKKVEPKSCDKTHTCPPCPAPELLGGPSVFLFPPKPKDTLMISRTPEVTCVVVDVSHEDPEVKFNWYVDGVEVHNAKTKPREEQYNNTYRVVSVLTVLHQDWLNGKEYKCKVSNKALPAPIEKTISKAKGQPREPQVYTLPPSRDELTRDQVSLTCLVKGFYPSDIAVEWESNGQPENNYKTTPPVLDSDGSFFLYSKLTVDKSRWQQGNVFSCSVMHEALHNHYTQKSLSLSPGK | Koff WT/Mut [4]: 0.67 ratio
5 | 1.5 | 1 | ch4-4-20 P247L, W313R, E388G (antibody) heavy: ASTKGPSVFPLAPSSKSTSGGTAALGCLVKDYFPEPVTVSWNSGALTSGVHTFPAVLQSSGLYSLSSVVTVPSSSLGTQTYICNVNHKPSNTKVDKKVEPKSCDKTHTCPPCPAPELLGGPSVFLFPPKLKDTLMISRTPEVTCVVVDVSHEDPEVKFNWYVDGVEVHNAKTKPREEQYNSTYRVVSVLTVLHQDRLNGKEYKCKVSNKALPAPIEKTISKAKGQPREPQVYTLPPSRDELTKNQVSLTCLVKGFYPSDIAVEWESNGQPGNNYKTTPPVLDSDGSFFLYSKLTVDKSRWQQGNVFSCSVMHEALHNHYTQKSLSLSPGK | –
6 | 0.25 | 5 | ch4-4-20 V397M, T411A, S415N (antibody) heavy: ASTKGPSVFPLAPSSKSTSGGTAALGCLVKDYFPEPVTVSWNSGALTSGVHTFPAVLQSSGLYSLSSVVTVPSSSLGTQTYICNVNHKPSNTKVDKKVEPKSCDKTHTCPPCPAPELLGGPSVFLFPPKPKDTLMISRTPEVTCVVVDVSHEDPEVKFNWYVDGVEVHNAKTKPREEQYNSTYRVVSVLTVLHQDWLNGKEYKCKVSNKALPAPIEKTISKAKGQPREPQVYTLPPSRDELTKNQVSLTCLVKGFYPSDIAVEWESNGQPENNYKTTPPMLDSDGSFFLYSKLAVDKNRWQQGNVFSCSVMHEALHNHYTQKSLSLSPGK | –
7 | 1.5 | – | ch4-4-20 T256S, V305I, K334E, N390S (antibody) heavy: ASTKGPSVFPLAPSSKSTSGGTAALGCLVKDYFPEPVTVSWNSGALTSGVHTFPAVLQSSGLYSLSSVVTVPSSSLGTQTYICNVNHKPSNTKVDKKVEPKSCDKTHTCPPCPAPELLGGPSVFLFPPKPKDTLMISRSPEVTCVVVDVSHEDPEVKFNWYVDGVEVHNAKTKPREEQYNSTYRVVSILTVLHQDWLNGKEYKCKVSNKALPAPIEETISKAKGQPREPQVYTLPPSRDELTKNQVSLTCLVKGFYPSDIAVEWESNGQPENSYKTTPPVLDSDGSFFLYSKLTVDKSRWQQGNVFSCSVMHEALHNHYTQKSLSLSPGK | binding result [2]: binds
8 | 0.5 | – | ch4-4-20 T335N, K370E, A378V, T394M, S424L (antibody) heavy: ASTKGPSVFPLAPSSKSTSGGTAALGCLVKDYFPEPVTVSWNSGALTSGVHTFPAVLQSSGLYSLSSVVTVPSSSLGTQTYICNVNHKPSNTKVDKKVEPKSCDKTHTCPPCPAPELLGGPSVFLFPPKPKDTLMISRTPEVTCVVVDVSHEDPEVKFNWYVDGVEVHNAKTKPREEQYNSTYRVVSVLTVLHQDWLNGKEYKCKVSNKALPAPIEKNISKAKGQPREPQVYTLPPSRDELTKNQVSLTCLVEGFYPSDIVVEWESNGQPENNYKTMPPVLDSDGSFFLYSKLTVDKSRWQQGNVFLCSVMHEALHNHYTQKSLSLSPGK | binding result [2]: binds
9 | – | – | ch4-4-20 R301H, K340E, D399E (antibody) heavy: ASTKGPSVFPLAPSSKSTSGGTAALGCLVKDYFPEPVTVSWNSGALTSGVHTFPAVLQSSGLYSLSSVVTVPSSSLGTQTYICNVNHKPSNTKVDKKVEPKSCDKTHTCPPCPAPELLGGPSVFLFPPKPKDTLMISRTPEVTCVVVDVSHEDPEVKFNWYVDGVEVHNAKTKPREEQYNSTYHVVSVLTVLHQDWLNGKEYKCKVSNKALPAPIEKTISKAEGQPREPQVYTLPPSRDELTKNQVSLTCLVKGFYPSDIAVEWESNGQPENNYKTTPPVLESDGSFFLYSKLTVDKSRWQQGNVFSCSVMHEALHNHYTQKSLSLSPGK | fold decrease vs WT [2]: 0.25 x; fold decrease vs WT [3]: 0.5 x
10 | 1.3 | 10.8 | ch4-4-20 V273I, K326E, L328I, P396L (antibody) heavy: ASTKGPSVFPLAPSSKSTSGGTAALGCLVKDYFPEPVTVSWNSGALTSGVHTFPAVLQSSGLYSLSSVVTVPSSSLGTQTYICNVNHKPSNTKVDKKVEPKSCDKTHTCPPCPAPELLGGPSVFLFPPKPKDTLMISRTPEVTCVVVDVSHEDPEIKFNWYVDGVEVHNAKTKPREEQYNSTYRVVSVLTVLHQDWLNGKEYKCKVSNEAIPAPIEKTISKAKGQPREPQVYTLPPSRDELTKNQVSLTCLVKGFYPSDIAVEWESNGQPENNYKTTPLVLDSDGSFFLYSKLTVDKSRWQQGNVFSCSVMHEALHNHYTQKSLSLSPGK | –
11 | 0.5 | 7 | ch4-4-20 V282E, V369I, L406F (antibody) heavy: ASTKGPSVFPLAPSSKSTSGGTAALGCLVKDYFPEPVTVSWNSGALTSGVHTFPAVLQSSGLYSLSSVVTVPSSSLGTQTYICNVNHKPSNTKVDKKVEPKSCDKTHTCPPCPAPELLGGPSVFLFPPKPKDTLMISRTPEVTCVVVDVSHEDPEVKFNWYVDGEEVHNAKTKPREEQYNSTYRVVSVLTVLHQDWLNGKEYKCKVSNKALPAPIEKTISKAKGQPREPQVYTLPPSRDELTKNQVSLTCLIKGFYPSDIAVEWESNGQPENNYKTTPPVLDSDGSFFFYSKLTVDKSRWQQGNVFSCSVMHEALHNHYTQKSLSLSPGK | –
12 | – | – | ch4-4-20 MgFc66 (A330V, V427M) (antibody) chain 1: not shown chain 2: DVVMTQTPLSLPVSLGDQASISCRSSQSLVHSNGNTYLRWYLQKPGQSPKVLIYKVSNRFSGVPDRFSGSGSGTDFTLKISRVEAEDLGVYFCSQSTHVPWTFGGGTKLEIKRTVAAPSVFIFPPSDEQLKSGTASVVCLLNNFYPREAKVQWKVDNALQSGNSQESVTEQDSKDSTYSLSSTLTLSKADYEKHKVYACEVTHQGLSSPVTKSFNRGEC | Koff WT/Mut [4]: 0.62 ratio
